Molecular target: Fhl1, P97447-2
Sequence (P97447 other isoform, or with tags, fused parts or gaps): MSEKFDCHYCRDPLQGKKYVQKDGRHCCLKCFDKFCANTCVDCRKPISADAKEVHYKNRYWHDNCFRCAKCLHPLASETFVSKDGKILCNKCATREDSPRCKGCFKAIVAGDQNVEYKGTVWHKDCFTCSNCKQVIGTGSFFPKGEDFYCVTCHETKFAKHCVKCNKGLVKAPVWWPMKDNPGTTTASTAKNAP

Recombining binding protein suppressor of hairless (Mus musculus), P31266 A284R, sequence (P31266 whole entry A284R): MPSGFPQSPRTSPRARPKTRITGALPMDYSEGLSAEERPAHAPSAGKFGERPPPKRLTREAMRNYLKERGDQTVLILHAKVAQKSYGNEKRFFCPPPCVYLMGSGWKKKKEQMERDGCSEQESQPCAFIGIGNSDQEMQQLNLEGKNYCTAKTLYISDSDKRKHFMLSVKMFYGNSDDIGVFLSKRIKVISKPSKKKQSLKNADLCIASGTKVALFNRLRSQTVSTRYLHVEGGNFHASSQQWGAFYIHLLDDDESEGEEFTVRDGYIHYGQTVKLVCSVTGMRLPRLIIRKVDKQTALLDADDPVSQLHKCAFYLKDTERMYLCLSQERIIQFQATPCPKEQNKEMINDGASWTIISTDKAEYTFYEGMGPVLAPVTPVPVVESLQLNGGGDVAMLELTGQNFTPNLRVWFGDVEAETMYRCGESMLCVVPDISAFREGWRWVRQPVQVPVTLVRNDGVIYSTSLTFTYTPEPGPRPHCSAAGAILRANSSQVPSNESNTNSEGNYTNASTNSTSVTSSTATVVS
Recombining binding protein suppressor of hairless (Mus musculus), P31266 F261R, sequence (P31266 whole entry F261R): as the sequence (P31266 whole entry A284R) above, with F261R, R284A counted along it

effect of a mutation on the interaction | Substance
decreasing interaction strength | Recombining binding protein suppressor of hairless (Mus musculus), P31266 A284R
decreasing interaction strength | Recombining binding protein suppressor of hairless (Mus musculus), P31266 F261R
